The values that follow are results of earlier work, collected in publication PMC10062658.

The target in the data set is PTH1R (Homo sapiens) (UniProt Q03431).
Chain of UniProt Q03431 (Q03431 27-593): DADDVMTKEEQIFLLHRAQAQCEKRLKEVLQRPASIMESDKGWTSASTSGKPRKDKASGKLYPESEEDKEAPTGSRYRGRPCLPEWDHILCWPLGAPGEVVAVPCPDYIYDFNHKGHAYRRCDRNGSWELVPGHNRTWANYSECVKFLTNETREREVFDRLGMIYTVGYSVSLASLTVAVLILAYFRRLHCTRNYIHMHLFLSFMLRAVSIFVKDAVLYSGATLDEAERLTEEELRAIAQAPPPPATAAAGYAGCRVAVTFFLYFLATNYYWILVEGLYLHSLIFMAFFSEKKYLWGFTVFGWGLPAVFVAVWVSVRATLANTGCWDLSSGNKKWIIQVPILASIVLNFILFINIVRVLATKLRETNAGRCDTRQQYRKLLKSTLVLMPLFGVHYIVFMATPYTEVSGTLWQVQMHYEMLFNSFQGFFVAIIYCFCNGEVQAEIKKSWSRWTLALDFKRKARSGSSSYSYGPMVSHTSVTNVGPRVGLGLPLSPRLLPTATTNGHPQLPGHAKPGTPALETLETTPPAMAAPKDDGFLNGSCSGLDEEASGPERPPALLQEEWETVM

PTH (from UniProt P01270): the equilibrium dissociation constant (Kd) (in general, a measure of binding affinity in units of concentration) was 1 nM.
